Here are results for one molecule from article PMC6468871.

The experiment addresses T1, RAD51 WT protein phosphorylated in vitro by c-MET kinase (human).
T1 chain: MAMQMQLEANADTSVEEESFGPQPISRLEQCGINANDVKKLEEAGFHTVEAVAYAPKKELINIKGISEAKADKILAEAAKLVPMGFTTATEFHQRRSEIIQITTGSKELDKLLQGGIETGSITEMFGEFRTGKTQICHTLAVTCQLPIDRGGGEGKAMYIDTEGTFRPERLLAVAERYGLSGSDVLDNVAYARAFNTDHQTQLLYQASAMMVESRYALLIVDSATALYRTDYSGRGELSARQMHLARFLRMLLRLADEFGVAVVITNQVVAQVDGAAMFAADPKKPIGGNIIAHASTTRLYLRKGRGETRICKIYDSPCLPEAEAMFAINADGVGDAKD
Description: cross-linking; RAD51 10 uM with ATP 2 mM, with or without kinase-active c-MET (0.1 uM) and PHA665752 (1 uM); 20 mM BS3, room temperature, 30 min, stopped with Tris 1 M pH 8.0; SDS-PAGE 10% and western blot with anti-RAD51. As to conditions: remark: other sources report otherwise. For orientation: In western blotting, separated proteins are transferred to a membrane and probed.

B1: RAD51 WT protein phosphorylated in vitro by c-MET kinase (natural protein)
chain: MAMQMQLEANADTSVEEESFGPQPISRLEQCGINANDVKKLEEAGFHTVEAVAYAPKKELINIKGISEAKADKILAEAAKLVPMGFTTATEFHQRRSEIIQITTGSKELDKLLQGGIETGSITEMFGEFRTGKTQICHTLAVTCQLPIDRGGGEGKAMYIDTEGTFRPERLLAVAERYGLSGSDVLDNVAYARAFNTDHQTQLLYQASAMMVESRYALLIVDSATALYRTDYSGRGELSARQMHLARFLRMLLRLADEFGVAVVITNQVVAQVDGAAMFAADPKKPIGGNIIAHASTTRLYLRKGRGETRICKIYDSPCLPEAEAMFAINADGVGDAKD
modifications: here or on the partner: phosphotyrosine at Y159, Y191, Y205 and Y315 (sites the paper concludes for c-MET; extent at each site not stated); phosphotyrosine at Y159, Y191, Y205 and Y315 (sites the paper concludes for c-MET; extent at each site not stated)
B1 gave a fold of multimer forms against non-phosphorylated RAD51 of 1.6 fold.
